According to patent US10154881B2, “Methods and compositions for tissue adhesives” (ARIZONA BOARD OF REGENTS FOR AND ON BEHALF OF ARIZONA STATE …, priority 2012, dated 2018):
Values joined by “and” are separate entries in the source; they are usually repeats but may differ in a detail not shown here. Equal entries are not always repeated.

B1: C8ELP: Elastin-like polypeptide with 8 cysteine residues, SEQ ID NO:1, expressed in E. coli (protein)
chain: MVSACRGPGVGVPGVGVPGVGVPGVGVPGVGVPGVGVPGVGVPGVGVPGVGVPGVGVPGVGVPGVGVPGVGVPGVGVPGVGVPGVGVPGVGVPGVGVPGVGVPGVGVPGVGVPGVGVPGVGVPGVGVPGVGVPGVGVPGVGVPGVGVPGVGVPGVGVPGVGVPGVGVPGVGVPGVGVPGVGVPGVGVPGVGVPGVGVPGVGVPGVGVPGVGVPGVGVPGVGVPGCGVPGVGVPGVGVPGVGVPGVGVPGCGVPGVGVPGVGVPGVGVPGVGVPGCGVPGVGVPGVGVPGVGVPGVGVPGCGVPGVGVPGVGVPGVGVPGVGVPGCGVPGVGVPGVGVPGVGVPGVGVPGCGVPGVGVPGVGVPGVGVPGVGVPGCGVPGVGVPGVGVPGVGVPGVGVPGCGVPGVGVPGWP
modifications: elastin-like polypeptide
B2: C12ELP: Elastin-like polypeptide with 12 cysteine residues, SEQ ID NO:2, expressed in E. coli (protein)
chain: MVSACRGPGVGVPGVGVPGVGVPGVGVPGVGVPGVGVPGVGVPGVGVPGVGVPGVGVPGVGVPGVGVPGVGVPGVGVPGVGVPGVGVPGVGVPGVGVPGVGVPGVGVPGVGVPGVGVPGVGVPGVGVPGVGVPGVGVPGVGVPGVGVPGVGVPGVGVPGVGVPGVGVPGVGVPGVGVPGVGVPGVGVPGVGVPGVGVPGVGVPGVGVPG
modifications: elastin-like polypeptide

Experiment: Determination of transition temperature (Tt) of ELPs by absorbance at 610 nm
Assay type: physicochemical
Conditions: 0.5× PBS; temperature at which absorbance at 610 nm reaches 50% of maximum
Procedure: The transition temperatures (Tt) of C8ELP and C12ELP were characterized by monitoring the absorbance at 610 nm as a function of temperature with an UV-visible spectrophotometer (Beckman DU530) in 0.5× phosphate-buffered solution (PBS). Briefly, 1 ml of C8ELP (0.5 mg/ml in 0.5×PBS) and 1 ml of C12ELP (1 mg/ml in 0.5×PBS) were prepared and placed in 1.5-ml disposable cuvettes. The temperature of CnELP (n: the number of cysteines in the ELP repeat sequence; n=8/12) was tuned by placing the CnELP-contained cuvette into a Precision 288 Digital Water Bath (Thermo Scientific) and was recalibrated by FLUKE 54 II (Type K) thermometer before absorbance measurement. The absorbance of CnELP was monitored at 610 nm with an UV-visible spectrophotometer (Beckman DU530) immediately after withdrawing the cuvette out of the water bath. The Tt is defined as the temperature at which the absorbance of CnELP solution reaches 50% of the maximum value. The temperature response of the C8ELP and C12ELP indicated Tt values of 31.3 and 30.5° C., respectively.

Row | Molecule | Transition temperature (Tt)
1 | B1 | 31.3 °C
2 | B2 | 30.4 °C and 30.5 °C
